Source: US20060206948A1 (UNIVERSITY OF PITTSBURGH OF THE COMMONWEALTH SYSTEM OF …, published 2006)

Legend:
[1] = molecular target: long-form human leptin receptor, OB-Rb (human) (UniProt P48357); experiment: binding of labelled leptin to HEK293 cells stably transfected with human OB-Rb
[2] = molecular target: T1, human leptin (SEQ ID NO:4) (human, UniProt P41159 22-167); experiment: derived from the IC50 of CRP against 125I-human leptin binding to OB-Rb HEK293 cells
T1 construct: Recombinant human leptin; also called recombinant human leptin
Procedure: (§1) 4. […] After 10 minute incubation at room temperature, the reaction was stopped with 100 μl 0.1% trifluoroacetic acid (TFA). The reaction mixture was immediately purified by reverse-phase HPLC. The separation employed a 5 minute isocratic step at 20% eluant B in A, followed by two consecutive 30 minute linear gradients from 20 to 50%, then from 50 to 60% eluant B in A (where eluant A is water containing 0. 1% TFA and eluant B is acetonitrile containing 0.1% TFA) at a flow rate of 1.5 ml/min. […] The incubation would last for 3 hours at 4° C. before the media was aspirated and the cells were dissolved in 0.1N NaOH for scintillation counting.

[3] = molecular target: T2, mouse leptin (mouse), P41160; experiment: human CRP against mouse leptin (~2 ng/ml) binding to OB-Rb HEK293 cells (FIG. 3G); conditions: remark: other sources report otherwise
T2 chain: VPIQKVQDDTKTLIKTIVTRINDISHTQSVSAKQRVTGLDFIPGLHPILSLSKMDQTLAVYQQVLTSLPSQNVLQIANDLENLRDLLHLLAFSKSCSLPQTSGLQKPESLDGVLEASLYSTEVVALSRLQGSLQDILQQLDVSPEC

[4] = molecular target: T1, human leptin (SEQ ID NO:4); experiment: human CRP pre-incubated with 125I-human leptin (~2 ng/ml); inhibition of leptin binding to OB-Rb HEK293 cells, scintillation counting
Procedure: as §1

rat C-reactive protein = molecular target: T3, rat C-reactive protein (rat, UniProt P48199 20-230); experiment: immunoprecipitation with anti-mouse leptin, western blot with anti-CRP
T3 construct: also called rat CRP; rat SLIP-1
T3 sequence (looked up): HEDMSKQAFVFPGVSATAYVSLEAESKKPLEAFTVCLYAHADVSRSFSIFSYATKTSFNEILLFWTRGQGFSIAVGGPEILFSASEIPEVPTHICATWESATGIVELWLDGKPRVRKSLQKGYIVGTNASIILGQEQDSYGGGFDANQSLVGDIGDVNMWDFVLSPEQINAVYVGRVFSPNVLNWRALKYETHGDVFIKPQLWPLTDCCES

Chain of long-form human leptin receptor, OB-Rb (human) (P48357 22-1165): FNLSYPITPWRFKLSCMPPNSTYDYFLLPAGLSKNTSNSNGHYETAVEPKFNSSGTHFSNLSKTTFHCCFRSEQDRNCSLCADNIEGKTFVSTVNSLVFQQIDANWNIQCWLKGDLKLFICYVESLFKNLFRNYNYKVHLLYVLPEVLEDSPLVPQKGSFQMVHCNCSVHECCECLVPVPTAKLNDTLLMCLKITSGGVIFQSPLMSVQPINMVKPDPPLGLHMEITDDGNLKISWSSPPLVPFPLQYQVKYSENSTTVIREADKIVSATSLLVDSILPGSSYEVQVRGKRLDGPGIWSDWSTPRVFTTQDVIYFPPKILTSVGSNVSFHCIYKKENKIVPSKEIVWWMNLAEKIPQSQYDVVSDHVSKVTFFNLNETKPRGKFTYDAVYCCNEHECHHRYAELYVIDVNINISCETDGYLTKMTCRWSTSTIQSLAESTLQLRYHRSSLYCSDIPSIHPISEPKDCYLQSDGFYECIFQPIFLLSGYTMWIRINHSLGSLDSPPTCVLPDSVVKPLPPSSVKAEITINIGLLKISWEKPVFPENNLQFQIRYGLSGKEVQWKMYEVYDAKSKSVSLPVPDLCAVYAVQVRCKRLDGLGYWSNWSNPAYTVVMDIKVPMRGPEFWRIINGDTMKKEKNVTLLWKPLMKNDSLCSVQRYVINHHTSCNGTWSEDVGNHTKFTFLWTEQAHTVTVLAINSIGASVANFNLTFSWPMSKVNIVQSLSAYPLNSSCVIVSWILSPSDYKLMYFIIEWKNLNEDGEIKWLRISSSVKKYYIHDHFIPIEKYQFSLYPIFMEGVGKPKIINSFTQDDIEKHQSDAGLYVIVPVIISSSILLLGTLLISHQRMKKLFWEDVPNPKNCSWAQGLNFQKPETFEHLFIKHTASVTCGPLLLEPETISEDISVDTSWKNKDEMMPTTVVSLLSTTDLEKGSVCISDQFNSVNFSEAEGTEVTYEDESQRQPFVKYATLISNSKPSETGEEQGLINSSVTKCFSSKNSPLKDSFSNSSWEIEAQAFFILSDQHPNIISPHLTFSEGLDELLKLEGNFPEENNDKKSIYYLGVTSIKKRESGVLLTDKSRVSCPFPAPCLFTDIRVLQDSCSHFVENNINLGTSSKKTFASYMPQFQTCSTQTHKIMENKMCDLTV

Molecule: human leptin (SEQ ID NO:4) (from UniProt P41159 22-167) (ligand)
- Kd [1]: 1 nM

B1: human C-reactive protein (other, UniProt P02741 19-224, looked up)
chain: QTDMSRKAFVFPKESDTSYVSLKAPLTKPLKAFTVCLHFYTELSSTRGYSIFSYATKRQDNEILIFWSKDIGYSFTVGGSEILFEVPEVTVAPVHICTSWESASGIVEFWVDGKPRVRKSLKKGYTVGAEASIILGQEQDSFGGNFEGSQSLVGDIGNVNMWDFVLSPDEINTIYLGGPFSPNVLNWRALKYEVQGEVFTKPQLWP
notes: Human SLIP-1 from the leptin column was identified as human CRP; also called human CRP; CRP
- molecular ratio CRP:leptin at the IC50 [2]: 5.8 CRP:leptin (molar, CRP pentamer)
- IC50 [3]: > 64 µg/mL
- IC50 [4]: ~0.08 µg/mL

B2: mouse leptin (ligand, UniProt P41160 22-167, looked up)
chain: VPIQKVQDDTKTLIKTIVTRINDISHTQSVSAKQRVTGLDFIPGLHPILSLSKMDQTLAVYQQVLTSLPSQNVLQIANDLENLRDLLHLLAFSKSCSLPQTSGLQKPESLDGVLEASLYSTEVVALSRLQGSLQDILQQLDVSPEC
notes: Recombinant; also called recombinant mouse leptin; murine leptin
- binding result (rat C-reactive protein): binds
